Test results from patent US11352401.
Each block holds one binder with its values, some of them ahead of it.

What was measured:
[1] = molecular target: HLA-A*02:01 (human); assay: preformed pMHC complex on aAPC beads and as fluorescent multimer, in vitro CD8+ T cell priming
Method: (§1) Viable singlet cells were gated for CD8+ lymphocytes. Boolean gates helped excluding false-positive events detected with multimers specific for different peptides.
(§2) 800.000 beads/200 μl were coated in 96-well plates in the presence of 4×12.5 ng different biotin-pMHC, washed and 600 ng biotin anti-CD28 were added subsequently in a volume of 200 μl. […] Half of the medium was then exchanged by fresh TCM supplemented with 80 U/ml IL-2 and incubating was continued for 4 days at 37° C. This stimulation cycle was performed for a total of three times. For the pMHC multimer readout using 8 different pMHC molecules per condition, a two-dimensional combinatorial coding approach was used as previously described (Andersen et al., 2012) with minor modifications encompassing coupling to 5 different fluorochromes. Finally, multimeric analyses were performed by staining the cells with Live/dead near IR dye (Invitrogen, Karlsruhe, Germany), CD8-FITC antibody clone SK1 (BD, Heidelberg, Germany) and fluorescent pMHC multimers. For analysis, a BD LSRII SORP cytometer equipped with appropriate lasers and filters was used. Peptide specific cells were calculated as percentage of total CD8+ cells. Evaluation of multimeric analysis was done using the FlowJo software (Tree Star, Oregon, USA). In vitro priming of specific multimer+CD8+ lymphocytes was detected by comparing to negative control stimulations.

[2] = molecular target: HLA-A*02:01 (human); assay: preformed control pMHC complex for aAPC stimulation
Method: as §2

[3] = molecular target: HLA-A*24:02 (human); assay: preformed pMHC complex on aAPC beads and as fluorescent multimer, in vitro CD8+ T cell priming
Method: as §1, §2

binding result [1]: binds
Binder: KIQEMQHFL (Synthetic peptide) [SeqID No 520 peptide (KIQEMQHFL)]

binding result [2]: binds
B1: DDX5-001 (YLLPAIVHI from DDX5) (peptide)
peptide: YLLPAIVHI
notes: Negative control peptide for T cell stimulations (still a pMHC complex with A*02:01); also called 533

binding result [3]: binds
Binder: VYEKNGYIYF (Synthetic peptide) [SeqID No 504 peptide (VYEKNGYIYF)]
